According to the nanobody polyreactivity screen of Harvey et al. (2022):

Experiment: yeast display, Sf9 membrane polyspecificity reagent, FACS + sequencing; frameworks hold sequencing errors
In short: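 Polyreactivity labels are assigned by the sorting gate from which each nanobody was recovered. The gates were low and high (top ~1%), set on anti-HA fluorescence for expression and streptavidin fluorescence for reagent binding. Before sorting, galactose-induced (36–48 hours) yeast display cells were stained for 1 hour at 4 °C with 10% biotinylated, detergent-solubilized Sf9 membrane reagent.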

Sequence	polyreactivity (PSR sort gate)
QVQLVESGGGLVQAGGSLRLSCAASGSTFIRNAMGWYRQAPGKERELVAAISSSGGRTYYADSVKGRFTISRDNAKNTVYLQMNSLKPEDTAVYYCAARNARYVHTMEYWGQGTQVTVSS	high polyreactivity
QVQLVDSWGGLVQAGGSLRLSCAASGSIFYRKAMGCYRQAPGKERELFAAITRSDVRTYYADSVKGRFTISRDNAKNTVYLQMNSLKPEDTAVYYCAALEYGSYQHFGEDYWGQGSQVTVSS	low polyreactivity
QVQLVESGGGLVQAGGSLRLSCAASGFTFYYYAMGWYRQAPGKERELVAAISSSGVRTYYADSVKGRFTISRDNAKNTVYLQMKSLKPEDTAVYYCATVGRGFPSVELDYWGQGTQVTVSS	high polyreactivity
QVQLVESWGGLVQAGGSLRLSCAASGSTFRGNAMGWYRQAPGTERELVAAITRRGGSTYYADSVKGRFTISRDNAKNTVYLQMNSLKPEDPAVYYCAKVGRETEYDYWGQGTQVTVSS	high polyreactivity
QVQLVESGGGLVQAGGSLRLSCAASGLIFSQNAMGWYRQAPGKERELVARITLSGTSTYYADSVKGRFTISRDNAKNTVYLQMISLKPEDTAVYYCNTRSYSYYVPYRYDYWGQGTQVTVSS	high polyreactivity
QVQLVESGGGLVQAGGSLRLSCAASGRIFLYYAMGWYRQAPGKERELVAAISRRGASTYYADSVKGRFTISRDNAKNTVYLQMNSLKPEDTAVYYCATVPGKSGDYWGQGTQVTVSS	high polyreactivity
QVQLVESGGGLVQAGGSVRLSCAASGFISPSYAMGWYRQAPGKERELVAAITTSGGSTYYADSVKGRFTISRDNAKNTVYLQMNSLIPEDTAVYYCAAVGPDNSLYEPMDYWGQGTQVTVSS	low polyreactivity
QVQLVESGGGIVQAGGSLRLSCAASGTLGSYRQAPGNEWELVAAISQSGGSTYYADSVKGRFTISRDNAKNTVYLQMNSLKPEDTAVYYCAVDPRYGHPRRDYWGQGTQVTVSS	low polyreactivity
QVQLVESGGGLVQAGGSLRLSCAASGLTFANYVMGWYRQAPGKEREMVAAISRSGGSTYYADSVKGRFTISRDNAKYTVYLQMNSLKPEDTAVYYCAAAAWDPKGSRYDYWGQGTQVTVSS	low polyreactivity
QVQLVESGGGLVQAGGSLRLSCAASGGIFGYYVMGWYRQAAGNERELVAVITRGGSTNYADSVKGRFTISRDNAKNTVYLQMNSLKPEDTAVYYCAKDVPYRRVRSEYWGQGTQVTVSS	low polyreactivity
QVQLVESGGGLVQAGGSLRLSCAASGSIFGYYAMGWYRPAPGKERELVAAISGSAGTTYYADSVKGRFTISRDNAKNTVYLQMNSLKPEDTAVYYCAKYYPYIQADYGYDYWGQGTQVTVSS	low polyreactivity
QVQLVESGGGLVQAGGSLRLSCASSGSTFRLYAMGWYRQAPGKERELVATISTSGGRTYYADSVKGRLTISRDNAKNTVYLQMNSLKPEDTAVYYCAAYRGTLLTAYDYWGQGTQVTVSS	low polyreactivity
QVQLVESGGGLVQAGGSHRLSCAASGGIFYFNAMGWYRQAPGKERELVASITWSGGNTYYADSVKGRFTISRDNAKNTVYLQMNSLKPEDTAVYYCAADTQEYRPTYDYWGQGTQVTVSS	low polyreactivity
QVQLVESGGGLVQAGGSLRLSCVASGGIFFHYAMRWYRHARGKERELVAAISISGGSTYSADSVKGRFTISRDNAKNTVYLQMNSLKPEDTAVYYCAARYWVRRKDYWGQGTQVTVSS	low polyreactivity
QVQLVESVGGLVQAGGSLRLSCAASGSTFGRNAMGWYRQAPGKERELVAAISSRGGGTYYADSVKGRFTISRDNAKNTVYLQMNSLKPEDTAVYYCAATYGYRRRNHYNYWGQGTQVTVSS	high polyreactivity
QVQLVESGGGLVQAGGSLRLSCAASGSTFARYAMGWYRQAPGKERELVAVITRSGGSTYYADSVKGRFTISRDNAKNTVYLQMNSLKPEDTDVYYCNKYGYKGGVGYDYWGQGTQVTVSS	high polyreactivity
QVQLVESGGGLVQAGGSLRLSCAASGSTFGLYAMGWYSQAPGKEREMVAVISWRGGSTIYADSVKGRFTISRDNAKITVYLEMNSLKPEDTAVYYCNAKQSYYYPWRGYNYWGQGTQVTVSS	high polyreactivity
QVQLVESGGGLVQPGGSLRLSGAASGRILTYYAMGWYRQAPGKERELFAAISWRAGSTYYADSVKGRFTISRDNAKNTVYLQMNSLKPEDTAVYYCAAKPYYIPTRTYSHYNYWGQGTLVTVSS	high polyreactivity
QVQLVESGGGLVQEGRSLRLSCAASGSIFTPYAMGWYRQAPGKERELVADINSGGSTDYADSVKGRFTISRDNAKNTVYLQMNSLKPEDTAVYYCASTWSFYFILYDYWGQGTQVTVSS	high polyreactivity
QVQLVESGGGLVQAGGRLRLSCAASGSTFSRYAMGWYRQAPGKERELVAAISWSGGITYYADSVKGRFTISRDNAKNTVYLQMNSLKPEDTAVYYCAARSRSWSGERGYWGQGTQVTVSS	high polyreactivity
QDQLVESGGGLVQAGGSLRLSCAASGRIFYLNAMGWYRQAPGKERELVAAINTSGDSTYYADSVKGRFTISRDIAKNTVYLQMNSLKQEDTAVYYCAAYVIGPDQFIYDYWGQGTQVTVSS	low polyreactivity
QVQLVESGGGLVQAGGSLRLSCASYGYIFWSYAMGWYRQAPGKERELVAAISASGGRTYYADSVKGRFTISRDNAKNTVYLQMNSLKPEDTAVYYCNADPGNHAYWYYGEFYYYTYDYWGQGTQVTVSS	low polyreactivity

Sequence	polyreactivity (PSR sort gate)
QVQLVESGGGLVQAGGSLRLSCAASGFTFSSNAMGWYRQAPGKERELVAAISFNSTSTYYADSVKGRFTISRDNAKNTVYLQMNSLKPEDTAVYYCAADVPRVQSEPEYDYWGQGTQVTVSS	low polyreactivity
QVQLVESGGGLLQAGGSLRLSCAASGSIIFYYAMGWYRQAPGKEREFVAAITRSGVRTYYADSGKGRFTISRDNAKNTVYLQMNSLKPEDNAVYYCHADYGFYRPVLMGYWGQGTQVTVSS	low polyreactivity
QVQRVESGGGLVQAGGSLRLSCAASGGIFFYNAMGWYRQAPGIERELVATIRGGGSTNYADSVKGRFTISRDNAKNTVYLQMNSLKPEDTAVYFCAAVDRRGANYNYWGQGTQVTVSS	high polyreactivity
QVQLVESGGGLVQAGGSLRLSCAASGFIFGVYAMGWYRKATGKERELVAAITTRAGTNYADSVKGRFTISRDNAKNTVYLQMNSLKPEDPAVYYCNAVGWYLLPYDYWGQGTQVTVSS	low polyreactivity
QVQLVESGGGLVQAGGSLRLSCAASGGIFIKYAIGWYRPAPGKERELVAAITYSGGSTYYADSVKGRFTISRDNAKNTVYLQMNCLKPEDTAVYYCAADTLRQYDYEYWGQGTQVTVSS	high polyreactivity
QVQLVESGGGLVQAGGSLRLSCAASGSTFRSNVMGWYRQAPGKAREFVAAITSSSATTYYADSVKGRFTISRDNAKNTVYLQMNSLKPEDTAVYYCAAGGRKAGPAGGQYYYWGQGTQVTVSS	low polyreactivity
QVQLVESGGGLVQAGGSLRLSCSASGRILVLNAMGWYRQAPGTERELVADITSGGSTYYADSVKGRFTISRDNAKNTVYLQMNSLKPEDTAVYYCAADWNTYPDYQQSYFVSYEYNYWGQGTQVTVSS	low polyreactivity
QVQLVESGGGLVQAGGSLRLSCAASGSTFDVYAMGWYRQAPGKERELVAAITWIGGSTYYADSVKGRFTISRDNAKNTVYLQMNSLKPEDTAVYYCARHDYGWVDYWGQGTQVTVSS	high polyreactivity
QVQLVESGRGLVQAGGSLRLSCAASGSTFVKYAMGWYRPAPGKERELVAAMNRSGASTYYADSVKGRFTISRDNAKNTVYLQMNSLKPEDTAVYYCAARFSWLGYYWGQGTQVTVSS	high polyreactivity
QVQLVESGGVLVHAGGSLRLSCAASGITFEYYTMGWYRKAPGKERELVAAISSGGGSTYYADSVKGRFTISRDNAKNTVYLQMKSLKPEDTAVYYCAARGYRADQWEYDYWGQGTQVTVSS	low polyreactivity
QVQLVESGGGLVQAGGSLRLSCAASGFTFPYYAMGWYRQAPVKERELVAAISYNGGSTYYADSVKGRFTISRDNAKNNVYLQMNSLKPEDTAVYYCNAVYYDSGVVGYYYWGQGTQVTVSS	high polyreactivity
QVQLVESGGGLVQAGGSLRLSCAASGFICGYYAMGWYRQAPGKERELVADISRGGNTNYAESVKGRFTISRDNAKNSVYLQMNSLKPEDTAVYYCARYRRGKMDYWGQGTQVTVSS	high polyreactivity
QVQLVESGGGLVQAGGTLRLICAASGSTFGPYDMGWYRQAPGKERELVADITSGGSTYYADSVKGRFTISRDNAKNTVYLQMISLKPEDTAVYYCAADRVWPYYQYDYWGQGTQVTVSS	low polyreactivity
QVQLVESGGGLVQAGGSLRLSCAASGSTFPPNGMGWYRQAPGKERELVAAIRWRGGSTYYADSVKGRFTISRDNAKNTVYLQMNSLKPEDTAVYYCAKYVTYSRPTNSPSGKHVYWGQGTQVTVSS	low polyreactivity
QVQLVESGGGLVQAGGSLRLSCAASGRTFGQYAMGWYRQAPGKERELVAAISTRGGSTYYADSVKGRFTISRDNAKNTVYLQLNSLKPEDTAVYYCAARQGWFAGYEYWGQGTQVTVSS	low polyreactivity
QVQLVESRGGLVQAGGSLRLSCAASGITFTRNVMGWYRPAPGKERELVAGISRSGGRTYYADSVKGRFTISRENAKNTVYLQMNSLKPEDTAVYYCAADYSRRTRVDDDYDYWGQGTQVTVSS	high polyreactivity
QVQLVESGGGLVQAGGSLRLSSAASGRIFVNYAMGSSRQAPGKERELVAAITSDGSTSYADSVNGRFTISRDNAKNTVFLEMNSLKPEDTAVYYCAKGQRDREEYDYWGQGTQVTVSS	low polyreactivity
QVQLVESGGGLVQAGGSLRLSCAASGFTFTPYAMGWYRQAPGKERELVAAISWSDVRTYYADSVKGRFTISRDNAKNTVFLQMNSLKPEDTAVYYCAAEFYFYSWSEYDYWGQGTQVTVSS	high polyreactivity
QVQLVESGGGLVQAGGSLRLSCAASGSIFDTYAMGWYRQAPGKERELVAAITQSGDRTYYADSVKGRFTISRDNAKNTVYLQMNSLKPEDTAVYYCNTRRGSAWSSDYWGQGTQVTVSS	low polyreactivity
QVQLVESGGGLVQAGGSLRLSCAASGSTFDYNSMGWYRQAPGKERELVATINDSGGNTYYADSVKGRFTISRDNAKNTVYLQMNSLKPEDTAVYYCATVGYLYTPVVVTWWDWGDYWGQGTQVTVSS	low polyreactivity
QVQLVESGAGLVQARASHRLSCAASGSTLYAYAIGCSRQEPGKEREMVAAISGTGGSTYYADSVKGRFTISRDNAKNTVYLQMNTLKPEDTADYYCAAYYNYFGQRYYYWGQGTQVTVSS	high polyreactivity
